Key:
[1] = molecular target: DNA polymerase III alpha-epsilon (DnaE/DnaQ) (Pseudomonas aeruginosa) (UniProt Q9HXZ1+G3XD54); conditions: E. coli DnaG-primed holoenzyme assay, 30 C
[2] = system: PolC (Streptococcus pyogenes); conditions: reconstitution assay; template inferred
[3] = system: DnaG primase (Pseudomonas aeruginosa); conditions: reconstituted P. aeruginosa holoenzyme assay, 22 C
[4] = system: DNA polymerase III core (alpha-epsilon-theta) (Yersinia pestis)
[5] = system: DnaG primase (Yersinia pestis)
[6] = system: DnaA (Escherichia coli); conditions: minimum DnaA concentration giving plateau in origin reconstitution assay; ATP, Mg; gel shift and filter binding mentioned without values
[7] = molecular target: T1, P. aeruginosa χ subunit (untagged) (Pseudomonas aeruginosa, UniProt O68823 2-142); experiment: co-expression and co-purification (ammonium sulfate, Q Sepharose)
T1 construct: holC, PA3832, 142 amino acids; also called HolC; chi
T1 sequence: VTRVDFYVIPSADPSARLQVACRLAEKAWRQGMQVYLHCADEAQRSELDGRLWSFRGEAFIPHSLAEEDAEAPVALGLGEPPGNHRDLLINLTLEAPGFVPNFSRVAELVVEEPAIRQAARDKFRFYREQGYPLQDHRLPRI

[8] = molecular target: T2, N-terminally hexa-His-tagged P. aeruginosa χ (Pseudomonas aeruginosa, UniProt O68823 2-142); experiment: Ni-NTA magnetic bead pull-down with immobilized His-tagged χ, imidazole elution
T2 construct: also called immobilized tagged P. aeruginosa χ; N-terminally His-tagged HolC; not shown: N-terminal hexa-His tag encoded by vector pA1-NB-KpnI
T2 sequence: T1 sequence

M13Gori ssDNA
activity [1]: 4.1e+06 U/mg
activity [2]: 500000 U/mg
activity [3]: 594000 U/mg
activity [4]: 1.1e+07 U/mg
activity [5]: 5.8e+06 U/mg

M13 ssDNA with 306-nt insert containing DnaA-box hairpin
activity [6]: 76 nM

B1: PA4679N45 protein, P. aeruginosa DNA polymerase III holoenzyme ψ subunit (other)
chain: LIEEQRRRAFLGAMQITSWLPRQPLPFAAPSRPELLETPPREEPAVPVRARAAIDAPQARVPQAEAPASAPSVAPAAPVEGRGIPISLPKPGAPAAKKAEPVAPVEEAPAESPAVQAPPPRFALQLLQAGSCTLLVELPTGEPFASRDPGYLLLRDLLRAAGLPDSPRLIGEPVRWPLLARGNLDQGPQAALEFVQSFVAARMEESERSRCLWLVGLPAIRFAGEGDEGSLFRELQVDGLGATWAVPGLEALMEEPALKGELWRAMRRVRQRWSSEIQ
notes: also called HolD; psi
binding result [7]: binds
binding result [8]: binds

Reference: US20100028862A1 (REPLIDYNE, published 2010)
